Test results as given in patent US20230265215A1 (OMEROS, published 2023).
“And” between values parts separate entries of the source, which are not always exact repeats. Equal entries are not always repeated.

Legend:
[1] = target: T1, MASP-3 (human, UniProt P48740-2 20-728, limits assumed); assay: solid phase ELISA, immobilized protease, mean apparent KD of two lots
T1 construct: Species read from 'Recombinant human MASP-2 or C1r, C1s, CFD, MASP-1 and MASP-3'
T1 sequence (looked up): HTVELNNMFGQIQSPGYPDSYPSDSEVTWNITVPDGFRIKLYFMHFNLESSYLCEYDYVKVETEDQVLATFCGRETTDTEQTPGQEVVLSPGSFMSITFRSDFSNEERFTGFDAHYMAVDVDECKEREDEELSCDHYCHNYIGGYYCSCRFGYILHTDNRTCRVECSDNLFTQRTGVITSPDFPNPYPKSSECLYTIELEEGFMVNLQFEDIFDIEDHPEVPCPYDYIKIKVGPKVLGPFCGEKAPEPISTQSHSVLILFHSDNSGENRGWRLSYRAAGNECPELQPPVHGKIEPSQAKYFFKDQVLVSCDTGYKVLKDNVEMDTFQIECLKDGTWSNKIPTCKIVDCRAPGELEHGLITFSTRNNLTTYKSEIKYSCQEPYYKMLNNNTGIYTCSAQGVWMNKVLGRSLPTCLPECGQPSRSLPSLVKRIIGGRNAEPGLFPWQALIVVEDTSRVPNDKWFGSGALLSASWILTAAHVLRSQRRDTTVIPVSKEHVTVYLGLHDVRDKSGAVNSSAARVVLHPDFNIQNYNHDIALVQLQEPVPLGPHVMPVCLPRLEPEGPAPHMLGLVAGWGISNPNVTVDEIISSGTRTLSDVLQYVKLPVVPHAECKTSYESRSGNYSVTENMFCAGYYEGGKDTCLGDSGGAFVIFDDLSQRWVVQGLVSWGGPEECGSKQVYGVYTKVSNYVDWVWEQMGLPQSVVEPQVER
Text: (§1) The apparent dissociation constant (KD) was estimated by nonlinear regression using a 4-parameter logistic model.
(§2) Fold selectivity calculated as KD(related serine protease)/mean KD(MASP-2).

[2] = target: T2, Recombinant human MASP-2 (specificity ELISA, Example 14) (human, UniProt O00187 16-686, limits assumed); assay: as above
T2 sequence (O00187 16-686 limits assumed): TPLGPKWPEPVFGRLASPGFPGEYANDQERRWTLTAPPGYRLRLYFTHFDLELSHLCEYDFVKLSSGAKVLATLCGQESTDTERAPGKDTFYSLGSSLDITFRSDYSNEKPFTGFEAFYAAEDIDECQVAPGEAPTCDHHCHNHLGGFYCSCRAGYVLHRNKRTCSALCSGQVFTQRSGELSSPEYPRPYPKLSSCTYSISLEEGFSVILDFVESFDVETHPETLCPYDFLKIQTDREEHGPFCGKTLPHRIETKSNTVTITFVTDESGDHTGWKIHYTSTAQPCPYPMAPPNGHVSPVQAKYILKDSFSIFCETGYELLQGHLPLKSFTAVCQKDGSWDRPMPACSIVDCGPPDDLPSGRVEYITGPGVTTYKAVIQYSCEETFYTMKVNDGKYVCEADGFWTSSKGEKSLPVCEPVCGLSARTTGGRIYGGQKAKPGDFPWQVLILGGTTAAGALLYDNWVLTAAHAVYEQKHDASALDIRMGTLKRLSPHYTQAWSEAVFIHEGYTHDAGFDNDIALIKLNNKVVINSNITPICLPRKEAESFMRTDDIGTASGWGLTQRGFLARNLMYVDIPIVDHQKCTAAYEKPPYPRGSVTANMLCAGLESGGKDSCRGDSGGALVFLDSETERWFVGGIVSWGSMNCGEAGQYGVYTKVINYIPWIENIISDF
Text: as §1, §2

[3] = target: T1, MASP-3; assay: solid phase ELISA, against human MASP-2 as reference
Text: as §1, §2

[4] = target: T3, Zymogen MASP-2 (human) (human, UniProt O00187 16-686, limits assumed); assay: SPR, immobilized OMS858, fluid phase MASP-2
T3 construct: also called zymogen form of human MASP-2
T3 sequence (O00187 16-686 limits assumed): as above

[5] = target: T4, Catalytically active MASP-2 (human) (human, UniProt O00187 16-686, limits assumed); assay: SPR, immobilized OMS858, fluid phase MASP-2
T4 construct: also called catalytically active form of human MASP-2
T4 sequence (O00187 16-686 limits assumed): as above

[6] = target: T5, Human MASP-2 CCP1/CCP2/SP H508Q 'dog-like' (human, UniProt O00187 287-686, limits assumed); assay: BLI (Octet RED96), H508Q against wild-type human MASP-2 CCP1/CCP2/SP
T5 construct: also called dog-like variant of human MASP-2; MASP-2 H508Q
T5 sequence (O00187 other isoform, or with tags, fused parts or gaps H508Q H508Q limits assumed): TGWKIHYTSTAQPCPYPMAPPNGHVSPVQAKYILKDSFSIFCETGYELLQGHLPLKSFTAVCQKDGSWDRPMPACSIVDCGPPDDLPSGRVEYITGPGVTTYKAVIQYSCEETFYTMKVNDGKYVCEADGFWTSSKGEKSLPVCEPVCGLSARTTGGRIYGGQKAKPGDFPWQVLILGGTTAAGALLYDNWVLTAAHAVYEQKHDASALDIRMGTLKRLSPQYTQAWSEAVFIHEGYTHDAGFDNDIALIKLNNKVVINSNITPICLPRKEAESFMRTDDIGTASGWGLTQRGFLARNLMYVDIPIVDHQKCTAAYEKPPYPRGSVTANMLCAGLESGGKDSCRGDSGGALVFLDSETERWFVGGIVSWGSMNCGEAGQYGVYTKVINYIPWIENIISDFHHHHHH
Method: (§3) All measurements were conducted with the Octet RED96 system (ForteBio) using PBS containing 1% BSA and 0.02% Tween 20 as assay buffer. […] After one step of baseline, the captured sensors were submerged into wells containing different concentrations of the target proteins (1.6-50 nM) for the association step (120 sec), and then transferred to empty wells for the dissociation step (200 sec). In all experiments, the captured sensor was also dipped in a well containing no analyte to allow single reference subtraction to compensate for the natural dissociation of the captured antibody. The recorded binding sensorgrams were analyzed with Octet data analysis software (ForteBio) to determine binding affinity (KD).

[7] = target: T6, Cyno MASP-2 CCP1/CCP2/SP (cynomolgus monkey, UniProt O00187 287-686 (human entry), limits assumed); assay: BLI (Octet RED96), OMS858 on anti-human Fc capture sensors, MASP-2 protein 1.6-50 nM
T6 construct: also called cynomolgus monkey MASP-2 CCP1/CCP2/SP
T6 sequence (O00187 other isoform, or with tags, fused parts or gaps limits assumed): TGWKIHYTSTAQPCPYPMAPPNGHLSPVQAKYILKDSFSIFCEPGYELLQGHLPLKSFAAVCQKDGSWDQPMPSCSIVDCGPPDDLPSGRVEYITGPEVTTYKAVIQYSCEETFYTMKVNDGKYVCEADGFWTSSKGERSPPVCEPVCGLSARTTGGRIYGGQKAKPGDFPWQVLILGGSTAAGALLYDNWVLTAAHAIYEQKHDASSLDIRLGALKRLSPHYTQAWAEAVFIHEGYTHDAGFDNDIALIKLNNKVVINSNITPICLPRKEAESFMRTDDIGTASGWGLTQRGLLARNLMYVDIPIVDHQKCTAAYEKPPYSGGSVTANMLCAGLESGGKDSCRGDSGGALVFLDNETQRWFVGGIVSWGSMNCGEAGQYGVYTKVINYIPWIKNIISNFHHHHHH
Method: as §3

[8] = target: Mouse MASP-2 CCP1/CCP2/SP (mouse, UniProt Q91WP0 287-685, limits assumed); assay: as above
Chain of Mouse MASP-2 CCP1/CCP2/SP (Q91WP0 other isoform, or with tags, fused parts or gaps limits assumed): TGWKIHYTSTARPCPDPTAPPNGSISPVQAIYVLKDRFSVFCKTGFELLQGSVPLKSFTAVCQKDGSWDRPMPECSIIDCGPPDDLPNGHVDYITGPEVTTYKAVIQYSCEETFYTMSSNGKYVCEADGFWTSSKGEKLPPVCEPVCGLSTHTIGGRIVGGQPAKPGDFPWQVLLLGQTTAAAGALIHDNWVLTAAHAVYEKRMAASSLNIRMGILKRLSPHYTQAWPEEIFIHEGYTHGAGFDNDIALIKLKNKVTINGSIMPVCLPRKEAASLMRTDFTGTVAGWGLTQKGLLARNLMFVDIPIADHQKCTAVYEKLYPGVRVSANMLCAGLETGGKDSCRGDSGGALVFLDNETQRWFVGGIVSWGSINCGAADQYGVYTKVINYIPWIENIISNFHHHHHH
Method: as §3

[9] = target: T5, Human MASP-2 CCP1/CCP2/SP H508Q …; assay: as above
Method: as §3

[10] = target: T7, Human MASP-2 CCP1/CCP2/SP (6xHis, E. coli, Example 10) (human, UniProt O00187 287-686, limits assumed); assay: as above
T7 construct: Expressed in BL21(DE3)pLysS E. coli and purified by IMAC; It may be the same protein as m6; also called catalytic fragment (CCP1-CCP2-SP domains) of human MASP-2; wild-type human H508
T7 sequence (O00187 other isoform, or with tags, fused parts or gaps limits assumed): as the sequence (O00187 other isoform, or with tags, fused parts or gaps H508Q H508Q limits assumed) above, with Q222H counted along it
Method: as §3

[11] = target: T2, Recombinant human MASP-2 (specificity …); assay: solid phase ELISA, immobilized protease, apparent KD by 4-parameter logistic fit
Text: as §1, §2

Kd [1]: > 100 µg/mL | Kd [2]: 0.047 µg/mL | Fold selectivity (KD related serine protease / mean KD MASP-2) [3]: > 2000 fold | Kd [4]: 0.715 nM | koff [4]: 0.000172 s⁻¹ | kon [4]: 241000 M⁻¹ s⁻¹ | Kd [5]: 0.287 nM | koff [5]: 0.00971 s⁻¹ | kon [5]: 3.38e+07 M⁻¹ s⁻¹ | fold reduction of binding affinity against wild-type human MASP-2 CCP1/CCP2/SP [6]: ~450 fold | Kd [7]: 8.23 nM | Kd [8]: 32.9 nM | Kd [9]: ~2000 nM | Kd [10]: 4.52 nM | Kd [11]: 0.042 µg/mL and 0.051 µg/mL
B1: mAb OMS858 (humanized anti-MASP-2 antibody) (antibody, V domains shown)
VH: QVQLVQSGAEVKKPGASVKVSCKASGYTFTNHHMHWLRQAPGQGLEWIGDIDASDSETHYIEKFKDRATLTIDKSSSTAYMELSSLRSEDTAVYYCARGDITTTLRYFDVWGQGTLVTVSS
VL: DIQLTQSPSSLSASVGDRVTITCSASSSVRYMYWYQQKPGKAPKLLIYDTSNLASGVPSRFSGSGSGTDNTLTISSLQPEDFATYYCQQWSSYPLTFGQGTKVEIKR
notes: also called antibody OMS858; biotinylated OMS858
